This assay concerns the target recombinant class C acid phosphatase from Pasteurella multocida (Pasteurella multocida). Briefly: AUC.

With “recombinant class C acid phosphatase from Pasteurella multocida (enzyme)”, the stoichiometry N (as a rule, a count of units in the complex or per binding partner) amounted to 2.

The values are drawn from paper PMC3086075.
